How the values were obtained:
[1] = molecular target: T1, GST fusion protein of constitutively active RhoA (RhoA^V14) (UniProt P61586 1-193, RhoA^V14); assay: pull-down; GST fusion proteins immobilised on beads, incubated 1 to 2 h at 4 °C with lysates of MEFs expressing HA-tagged DGKζ constructs; washed at least four times with ice-cold lysis buffer; bound DGKζ detected by anti-HA immunoblot; in some panels cells were treated with vehicle, 100 nM PMA, or 1 μM Gö6976 before PMA; conditions: one partner purified
T1 construct: RhoA, constitutively active V14 mutant; cDNA from the Missouri S&T cDNA Resource Center, subcloned into pGEX-4T-3; also called GST-RhoA^V14; source: recombinant GST fusion (pGEX-4T-3), purified as described previously

[2] = molecular target: T2, GST fusion protein of inactive RhoA (RhoA^N19) (UniProt P61586 1-193, RhoA^N19); assay: as above; conditions: one partner purified
T2 construct: cDNA from the Missouri S&T cDNA Resource Center, subcloned into pGEX-4T-3; also called GST-RhoA^N19; GST-RhoN^19; source: recombinant GST fusion (pGEX-4T-3), purified as described previously
T2 sequence (P61586 other isoform, or with tags, fused parts or gaps RhoA^N19 | RhoA^N19): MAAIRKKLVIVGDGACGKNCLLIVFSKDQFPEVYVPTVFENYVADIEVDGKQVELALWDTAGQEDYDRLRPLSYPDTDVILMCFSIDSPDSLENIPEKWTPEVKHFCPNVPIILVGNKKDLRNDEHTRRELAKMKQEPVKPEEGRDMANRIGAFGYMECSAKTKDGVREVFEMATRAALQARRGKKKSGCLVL

T1 sequence (P61586 other isoform, or with tags, fused parts or gaps RhoA^V14 | RhoA^V14): as the sequence (P61586 other isoform, or with tags, fused parts or gaps RhoA^N19 | RhoA^N19) above, with G14V, N19T counted along it

B1: HA-tagged wild-type diacylglycerol kinase ζ (enzyme)
chain: not shown
notes: diacylglycerol kinase ζ (DGKζ), wild type; also called HA-DGKζ; HA-DGKζ^WT; source: MEFs, infected with adenoviral vector or transiently transfected, in lysate
- fold change of binding after PMA against vehicle control [1]: ~2 fold
- fold change of binding after PMA against vehicle control [2]: ~2 fold
